Assay: label from the status in PepcDB records
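Also: failed if final PepcDB status was selected cloned or expressed and not failed if soluble or beyond.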

Sequence	protein production
MIKVGVIGFGTVGQGVVESLVQLERGLRKEVTLEMLLVTNRRKHEHSEQYALVTDDWETFAARYYDVVFEAAGGIEPVYDYVRFFLKKGVPVVTANKKLVAERGEELERLAAENDTYLCYEAAVAGGIPILNAIKGTLATTSFTSVAGILNGTTNYILTGMIEQNRPFQDMLEEAQAKGYAEADPTDDIEGYDAWYKIRILARLCFGIWPNRDDISRSGLHDVLDWHVELGQSLGLTLKLDGRASVKNNTIIGSVAPAFFTNDHPFSTVYGVTNAVVLEGKAIERLLFTGPGAGKEATANSMVEDYLFHERYKGERQPMLIKEKEQNRIANVLVMVAAHEKKEAEKVVEHLPCQRINTFAADEGEAWWLKVYEDVIPFISKQLGLSLYRVYGAFEKQLVTTNMHHPSSIDETLEQKA	failed
MRGEFYQQLTNDLETARAEGLFKEERIITSAQQADITVADGSHVINFCANNYLGLANHPDLIAAAKAGMDSHGFGMASVRFICGTQDSHKELEQKLAAFLGMEDAILYSSCFDANGGLFETLLGAEDAIISDALNHASIIDGVRLCKAKRYRYANNDMQELEARLKEAREAGARHVLIATDGVFSMDGVIANLKGVCDLADKYDALVMVDDSHAVGFVGENGRGSHEYCDVMGRVDIITGTLGKALGGASGGYTAARKEVVEWLRQRSRPYLFSNSLAPAIVAASIKVLEMVEAGSELRDRLWANARQFREQMSAAGFTLAGADHAIIPVMLGDAVVAQKFARELQKEGIYVTGFFYPVVPKGQARIRTQMSAAHTPEQITRAVEAFTRIGKQLGVIA	not failed
TCIYKLADTVSDEYSLQKIIDFLSSTPQGKQAFQKRPQLGVVDLPKLHQLPTDTLGYVYADQMLQNNLQPLQSHEIDNDYQFFKTHITETHDLWHIVTGADTSILGEIQLEAFYVSQLYASRFWLALLAKNLLKAVIYDIELSTPYMDAISTGWVMAKQAKPLFGLEWNLLWEKPLADVRTSLNIILP	failed
MESTLSASNMQDPSSSPLEKCLGSANGNGDLDSEEGSSLEETGFNWGEYLEETGASAAPHTSFKHVEISIQSNFQPGMKLEVANKNNPDTYWVATIITTCGQLLLLRYCGYGEDRRADFWCDVVIADLHPVGWCTQNNKVLMPPDAIKEKYTDWTEFLIRDLTGSRTAPANLLEGPLRGKGPIDLITVGSLIELQDSQNPFQYWIVSVIENVGGRLRLRYVGLEDTESYDQWLFYLDYRLRPVGWCQENKYRMDPPSEIYPLKMASEWKCTLEKSLIDAAKFPLPMEVFKDHADLRSHFFTVGMKLETVNMCEPFYISPASVTKVFNNHFFQVTIDDLRPEPSKLSMLCHADSLGILPVQWCLKNGVSLTPPKGYSGQDFDWADYHKQHGAQEAPPFCFRNTSFSRGFTKNMKLEAVNPRNPGELCVASVVSVKGRLMWLHLEGLQTPVPEVIVDVESMDIFPVGWCEANSYPLTAPHKTVSQKKRKIAVVQPEKQLPPTVPVKKIPHDLCLFPHLDTTGTVNGKYCCPQLFINHRCFSGPYLNKGRIAELPQSVGPGKCVLVLKEVLSMIINAAYKPGRVLRELQLVEDPHWNFQEETLKAKYRGKTYRAVVKIVRTSDQVANFCRRVCAKLECCPNLFSPVLISENCPENCSIHTKTKYTYYYGKRKKISKPPIGESNPDSGHPKPARRRKRRKSIFVQKKRRSSAVDFTAGSGEESEEEDADAMDDDTASEETGSELRDDQTDTSSAEVPSARPRRAVTLRSGSEPVRRPPPERTRRGRGAPAASSAEEGEKCPPTKPEGTEDTKQEEEERLVLESNPLEWTVTDVVRFIKLTDCAPLAKIFQEQDIDGQALLLLTLPTVQECMELKLGPAIKLCHQIERVKVAFYAQYAN	failed
MKRTGILLVNLGTPKDSSKTEVRKYLKTFLSDRRVIKIHPIIWKPILNGIILNIRPKKSAKLYQKICTENGFPLLEYTEKQMENLKNICPEVEVTIGMSYSEPSIETALDTLLSKEIEELNVIPMYPQYSGTTVGSVFDSVMNYFIKSDRIVDIKFIRSFYNNPQYIDYFSKKINEALNESPIDAIVFSYHGIPMSYVKDGDNYPKECTKTTKLIMDKLGDIRYYQTYQSKFGPSEWLKPATDDTLKKLPSKGIKNILIVAPGFVVDCLETIEELEHENRNYFLENGGEVYKYVHPFNGDIEFAKLVKDIISL	failed
MAVKFFGQFLVEKGVVSRETLLQAIELQESVNLSFGATSLAMGILTEADIERIHNAQRIEDLRFGDMAVKLGLLTSEQMMQVLTRQKNTHLYIGEALVKVGSFQADELPKYLEEFKADQAQYATDTVVIPTGVSEPKIWEMVADLSYKMLTRVALLVFRPEPCFVADRVPAMDVYATMDFTGDISGRYFMGVTAATQKKIAKAILKEPNVDNEPKEILDDTVMEFVNVALGNIAAKAAQSGKSMEIAPPEIIEAPDGIQVPDGHKALCFPVCLSDGDRIELAVFIQQLEHHHHHH	not failed
TAPTLAEEVKQQSDGSVIIEGSANLRDLNKLFNWHLPINEVRTFNGLILEHLEKIPIEGTQFRLNQLNITVLEVADNMVKKVKVELIE	not failed
MKRLIAATLVAAMGVSLLTGCGVSNKSHDNTQVGTTENSSDKAKNKEVKMHVWCSKDDVDITTQMIESFKEANKGTDFNIIIEESEDSDARDNILSNVHNGADVFPIADDQITSMVAGGALYEIEDVDAVKKANDESAVEAATIDGKLYGYPLTADNGYFMYYNKNYFSDSDVATLDGMLDIAGANGKYLTMDWSSGWYLYSFFGNTGLDFGVNDDGVTNHCNWNAIITDIKGVDIAQAMLDIAAKPGFKNCVQDDFIAGVQDGSIIAGVSGCWNAAKIKELWGDDYGAVKLPTYTCAGQQIQMSSFKGYKYMAVNAYTKYPEWANKLAQWFTNEDNQKLRFEMKNVGPANKAAAADDAVKKVPAIMAVMDQAQYGKLQRVGNSYWDAATEFGEKMAAGNPDNTDLQEIMDNLVAGITQSVAE	failed
NPHMWWLQDADPENNSRQASPSQESINQLVYMGFDTVVAEAALRVFGGNVQLAAQTLAHHGGSLPPDLQF	not failed
MFSAKKLSPADKLKNISSMLEEIVEDTTVPRNIRAAADNAKNALHNEEQELIVRSATAIQYLDDISEDPNMPIHTRTQIWGIVSELETIK	not failed
MALKDYALEKEKVKKFLQEFYQDDELGKKQFKYGNQLVRLAHREQVALYVDLDDVAEDDPELVDSICENARRYAKLFADAVQELLPQYKEREVVNKDVLDVYIEHRLMMEQRSRDPGMVRSPQNQYPAELMRRFELYFQGPSSNKPRVIREVRADSVGKLVTVRGIVTRVSEVKPKMVVATYTCDQCGAETYQPIQSPTFMPLIMCPSQECQTNRSGGRLYLQTRGSRFIKFQEMKMQEHSDQVPVGNIPRSITVLVEGENTRIAQPGDHVSVTGIFLPILRTGFRQVVQGLLSETYLEAHRIVKMNKSEDDESGAGELTREELRQIAEEDFYEKLAASIAPEIYG	failed
AEGRGKARADSLKAGSQGLSANKRRADGSFESVVASSLRKGDVVRVQAGEMIPGDGEVIEGVAAVNEAAITGESAPVIRESGGDRSAVTGNTQVVSDWLLVRIGANPGESTLDRMIALVEGAKRQKTPNEV	failed
MRQARGRVHKNLGARVGSARPRSSLGHRTGIMKGQDMPGTVRLHRVLTTSPEKVYRAFVEADALAKWLPPNGFTCTVDHLEAKVGGTFKMSFRNFTTGGSHAFGGEYLELVPGERLRYTDRFDDPNLPGEIQVTVILKKVSVGTEIDITQAGIPDVIPVEACYLGWQESLRNLAKLVEPEINQ	failed
MALREMIIDESDDIESYSDQSLCLDKAKELLALIKLPTGLLPLKDMTEVGYNKTKGFVWMRMRSKIEHTFREIGRRVLYDTEITAFVEDRRMRRLTGVKSKELMIWVPVNDIFIKRKILRRSPLLIPPACHEHLKFQHFNVRVDKLKEKRSNQTSLM	failed
MSGITMAMRGPRLEFAVGAFLLLTLASLLVLAVASTNQRWGFGSSQYTLTARFSQIGQLRAQAPVKIGGVTIGKVSDISLDPTKFDSIVTLSLDTRYKDLPADTSAGIFTSGLLGESYIGLQPGGDPDTLKPGDEIGFTQPAVDLLQLVGKYMFSGGGSGSNANVPAATNGQAPAPARTAPPPTEPHQ	failed
MKFVHSETHRRHDPQFFIVRGQITRSTEQPERADRLLAAAQRRGHERVEARDFGEAILAEVHCPRYLDFLKNGYAQWRALPGASQEITPHVHPPREESGYPVSIIGRAGFHIADTSSPMGPHTWEAALAASHSACTAAQLVIEGAPAAYSLSRPPGHHATRDRAGGFCFLNHTAVAAQWLRHHVARVAILDVDVHHGNGTQDIFYERDDVLHVSLHADPAYFYPFFTGYAQETGRGIGAGCNLNLPLPIGTDDEAFLAALRIACRRVLDFKPDVVVVALGLDTYEGDPLNAFRITTPGFARIGQAIAGLALPTVLVQEGGYLSDELGENLATFLDGFCQHHRPTATLR	failed
MKIPKIYVEGELNDGDRVAIEKDGNAIIFLEKDEEYSGNGKLLYQVIYDDLAKYMSLDTLKKDVLIQYPDKHTLTYLKAGTKLISVPAEGYKVYPIMDFGFRVLKGYRLATLESKKGDLRYVNSPVSGTVIFMNEIPSERANYVFYMLEE	not failed
MKRGNEENNHKTSSSSSTQRLSRRKISAGEKSGNVNIPLDLTVEILKKLPAKSLLRFQCVSKQWLSIISSRRDFIDSIVTRSLTQPPPRDIKLIFHHQVLYPGPHFFIFSSTYPQNTDKESLTTRASSYHYVRGLICCWSHCPTTVDIYNPTTRQYYTVPDTNRYQYIETCFFGYDPVENQYKVMVLPKYYMEESPCQVFTVGDPIEKPWRDIQGIGVHFLLKDAVCINGVIYYQATNEYGSTYFLVSFDVRSEKFNHVKAPKILTDHPCTLINYQGKLGLIMCCKKGLEIWVMEDAEKKQD	failed
MANYYEPPASGNRRDAVKGYNSGSFDDSAGDQSQTNDYQLKIKKSKSVPNADRAASRSWSFSDPESRRKRRVAGYKVYSVEQKMKGSIRKSFKWFKDIIGIS	failed
MRRNTALTRIMASGVAAIMLCAGGTFTVNAAEEEPVKADVSVKAIQGLSDDFIGGMDVSSMLSLEESGVTFKNANGEVEDLFTLLKESGVNYVRLRVWNDPFTADGQGYGGGNVNADRALTMAKRATAAGLKVLVDFHYSDFWADPSKQQVPKAWKSFEGDADKTADTVYDYTKQTLTTFKQAGVDVGMVQVGNETTAKIAGISGWDGMSKVFSAGSKAIREVLPEAKVVIHFTNPEKAGTYATYAKQLSNHNVDYDVFASSYYPFWHGTTENLTSVLKNVASTYKKDVMVAETSWAYTLDDGDDDSNTVPSKVTADNLKKYDISPQGQADEIRAVAEAVNNIGDNDGDGENDGLGVFYWEPAWVPVGTGGKDNAELVDTWNKYGGGWATEAAGEYDPNDAGLYWGGSGVDNQALFDFDGKALASLPTFKYIHTGAVTDHVFTKIDPVEITATDSDSIDAIKAQLPSEVAAHYQDGVDETETVTWQSAALDWIRGAGTYTITGTTNAGHDVTVTVTVTATPAKDYVTDGSFENAENDKNWTIAGTGASITEDSGNAADGKRALKFWASDAYSFSATQTITGLEPGEYVLTAMSQGAAADNAAITDGVALSATTGGKTTSDALELNGWVKFDTATVPVTVGADGTATITITGNLPADAWGNVDKVSLVKKTETPVKPSTENLDKAVAEAGKINRDEYTNESLAKLDQALAAADVLLAGSTYTEQDVNDVIKLVADAIAGLAQKEVSSLTVTPSKTTYQVGDAIDADHDLKVVGNYSAGMGNVTLSADQFTLDYDFSAPADAAKVTVTLKSNPNVTETYTVAVTARAEGGSGNGSDGAGNGGATINPDTGEGDKTNGANGDKITGVLSNTGSAVTAVGLAVVVLGVAGGVSLALRRKRS	failed
